Results as given in patent US20190269786A1 (published 2019).
Where two headings read alike, the source gives them in different places.

Legend:
[1] = target: T1, folate receptor 1 (FOLR1) (human, UniProt P15328 25-234); test: flow cytometry binding on T47D cells
[2] = target: T1, folate receptor 1 (FOLR1); test: flow cytometry binding on T47D cells; remark: listed apart in the source

T1 sequence (P15328 25-234): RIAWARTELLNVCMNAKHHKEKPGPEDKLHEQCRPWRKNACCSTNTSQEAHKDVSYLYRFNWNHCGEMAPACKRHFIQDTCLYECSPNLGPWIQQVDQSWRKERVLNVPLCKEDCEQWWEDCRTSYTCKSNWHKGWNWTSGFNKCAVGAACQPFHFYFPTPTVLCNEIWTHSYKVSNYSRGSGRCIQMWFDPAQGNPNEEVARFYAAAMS

EC50 [1]: 144 pM
EC50 [2]: 314 pM
B1: huMOV19 antibody (antibody, V domains shown)
VH: QVQLVQSGAEVVKPGASVKISCKASGYTFTGYFMNWVKQSPGQSLEWIGRIHPYDGDTFYNQKFQGKATLTVDKSSNTAHMELLSLTSEDFAVYYCTRYDGSRAMDYWGQGTTVTVSS
VL: DIVLTQSPLSLAVSLGQPAIISCKASQSVSFAGTSLMHWYHQKPGQQPRLLIYRASNLEAGVPDRFSGSGSKTDFTLTISPVEAEDAATYYCQQSREYPYTFGGGTKLEIKR
